B1: GpH7-A5/GpH7-B3 variant Y296_06M/GpL16-k0 (antibody, human IgG1, kappa)
heavy 1: not shown
heavy 2: not shown
light: DIVMTQSPLSLPVTPGEPASISCQASESLVHSNRNTYLHWYLQKPGQSPQLLIYKVSNRFSGVPDRFSGSGSGTDFTLKISRVEAEDVGVYYCSQNTHVPPTFGQGTKVEIERTVAAPSVFIFPPSDEQLKSGTASVVCLLNNFYPREAKVQWKVDNALQSGNSQESVTEQDSKDSTYSLSSTLTLSKADYEKHKVYACEVTHQGLSSPVTKSFNRGEC
notes: He Ab; IgG1, mutation in one H chain
B2: GpH7-A5/GpH7-B3 variant Y296_11K/GpL16-k0 (antibody, human IgG1, kappa)
heavy 1: not shown
heavy 2: not shown
light: B1 light
notes: as for B1
B3: GpH7-A5/GpH7-B3 variant Y300_08L/GpL16-k0 (antibody, human IgG1, kappa)
heavy 1: not shown
heavy 2: not shown
light: B1 light
notes: as for B1
B4: GpH7-A5/GpH7-B3 variant Y300_02A/GpL16-k0 (antibody, human IgG1, kappa)
heavy 1: not shown
heavy 2: not shown
light: B1 light
notes: as for B1
B5: GpH7-A5/GpH7-B3 variant Y296_16H/GpL16-k0 (antibody, human IgG1, kappa)
heavy 1: not shown
heavy 2: not shown
light: B1 light
notes: as for B1
B6: GpH7-A5/GpH7-B3 variant S298_11K/GpL16-k0 (antibody, human IgG1, kappa)
heavy 1: not shown
heavy 2: not shown
light: B1 light
notes: as for B1
B7: GpH7-A5/GpH7-B3 variant S298_10E/GpL16-k0 (antibody, human IgG1, kappa)
heavy 1: not shown
heavy 2: not shown
light: B1 light
notes: as for B1
B8: GpH7-A5/GpH7-B3 variant Y300_07I/GpL16-k0 (antibody, human IgG1, kappa)
heavy 1: not shown
heavy 2: not shown
light: B1 light
notes: as for B1
B9: GpH7-A5/GpH7-B3 variant Y296_07I/GpL16-k0 (antibody, human IgG1, kappa)
heavy 1: not shown
heavy 2: not shown
light: B1 light
notes: as for B1
B10: GpH7-A5/GpH7-B3 variant Y300_03V/GpL16-k0 (antibody, human IgG1, kappa)
heavy 1: not shown
heavy 2: not shown
light: B1 light
notes: as for B1
B11: GpH7-A5/GpH7-B3 variant Y296_03V/GpL16-k0 (antibody, human IgG1, kappa)
heavy 1: not shown
heavy 2: not shown
light: B1 light
notes: as for B1
B12: GpH7-A5/GpH7-B3 variant S298_04F/GpL16-k0 (antibody, human IgG1, kappa)
heavy 1: not shown
heavy 2: not shown
light: B1 light
notes: as for B1
B13: GpH7-A5/GpH7-B3 variant Y296_14T/GpL16-k0 (antibody, human IgG1, kappa)
heavy 1: not shown
heavy 2: not shown
light: B1 light
notes: as for B1
B14: GpH7-A5/GpH7-B3 variant Y300_06M/GpL16-k0 (antibody, human IgG1, kappa)
heavy 1: not shown
heavy 2: not shown
light: B1 light
notes: as for B1
B15: GpH7-A5/GpH7-B3 variant S298_02A/GpL16-k0 (antibody, human IgG1, kappa)
heavy 1: not shown
heavy 2: not shown
light: B1 light
notes: as for B1
B16: GpH7-A5/GpH7-B3 variant S298_16H/GpL16-k0 (antibody, human IgG1, kappa)
heavy 1: not shown
heavy 2: not shown
light: B1 light
notes: as for B1
B17: GpH7-A5/GpH7-B3 variant S298_09D/GpL16-k0 (antibody, human IgG1, kappa)
heavy 1: not shown
heavy 2: not shown
light: B1 light
notes: as for B1
B18: GpH7-A5/GpH7-B3 variant S298_14T/GpL16-k0 (antibody, human IgG1, kappa)
heavy 1: not shown
heavy 2: not shown
light: B1 light
notes: as for B1
B19: GpH7-A5/GpH7-B3 variant S298_18N/GpL16-k0 (antibody, human IgG1, kappa)
heavy 1: not shown
heavy 2: not shown
light: B1 light
notes: as for B1
B20: GpH7-A5/GpH7-B3 variant Y300_12R/GpL16-k0 (antibody, human IgG1, kappa)
heavy 1: not shown
heavy 2: not shown
light: B1 light
notes: as for B1
B21: GpH7-A5/GpH7-B3 variant S298_15Y/GpL16-k0 (antibody, human IgG1, kappa)
heavy 1: not shown
heavy 2: not shown
light: B1 light
notes: as for B1
B22: GpH7-A5/GpH7-B3 variant S298_03V/GpL16-k0 (antibody, human IgG1, kappa)
heavy 1: not shown
heavy 2: not shown
light: B1 light
notes: as for B1

For the first test, the target named is T1, FcγRIIb extracellular domain with C-terminal His tag (human, UniProt P31994 43-217).
T1 construct: extracellular domain; expressed in FreeStyle293 cells; analyte in Biacore; also called FcgRIIb; 2b
T1 sequence (looked up): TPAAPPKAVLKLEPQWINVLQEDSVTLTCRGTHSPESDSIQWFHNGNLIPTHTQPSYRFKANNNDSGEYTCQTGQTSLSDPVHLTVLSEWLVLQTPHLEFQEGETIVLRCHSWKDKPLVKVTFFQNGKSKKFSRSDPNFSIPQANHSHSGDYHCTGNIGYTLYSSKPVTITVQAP
Nature of the test: SPR (Biacore), captured antibody, FcγR as analyte; relative binding.
Turning to B1, the He/Con_2b is 87.8 % of HeCon Ab (GpH7-A5/GpH7-B3/GpL16-k0 = 100).
The same measure, in the same setting: the result for B2 reads 72.8 % of HeCon Ab (GpH7-A5/GpH7-B3/GpL16-k0 = 100).
Same read-out and setting: the result for B3 reads 73.6 % of HeCon Ab (GpH7-A5/GpH7-B3/GpL16-k0 = 100); that for B4, 69.2 % of HeCon Ab (GpH7-A5/GpH7-B3/GpL16-k0 = 100).
The same measure, in the same setting: for B5 the value was 92.2 % of HeCon Ab (GpH7-A5/GpH7-B3/GpL16-k0 = 100); for B6, 61.3 % of HeCon Ab (GpH7-A5/GpH7-B3/GpL16-k0 = 100); for B7, 47.6 % of HeCon Ab (GpH7-A5/GpH7-B3/GpL16-k0 = 100).
On to B8, for which the He/Con_2b is 74.5 % of HeCon Ab (GpH7-A5/GpH7-B3/GpL16-k0 = 100).
The same measure, in the same setting: for B9 the value was 84.3 % of HeCon Ab (GpH7-A5/GpH7-B3/GpL16-k0 = 100); for B10, 73.9 % of HeCon Ab (GpH7-A5/GpH7-B3/GpL16-k0 = 100).
On the same count and under the same terms, for B11 the value was 79.3 % of HeCon Ab (GpH7-A5/GpH7-B3/GpL16-k0 = 100); for B12, 65.4 % of HeCon Ab (GpH7-A5/GpH7-B3/GpL16-k0 = 100).
Same read-out and setting: the result for B13 reads 88.2 % of HeCon Ab (GpH7-A5/GpH7-B3/GpL16-k0 = 100).
Turning to B14, the He/Con_2b is 84.3 % of HeCon Ab (GpH7-A5/GpH7-B3/GpL16-k0 = 100).
On the same count and under the same terms, for B15 the value was 73.4 % of HeCon Ab (GpH7-A5/GpH7-B3/GpL16-k0 = 100); for B16, 63.5 % of HeCon Ab (GpH7-A5/GpH7-B3/GpL16-k0 = 100).
The same measure, in the same setting: for B17 the value was 48.3 % of HeCon Ab (GpH7-A5/GpH7-B3/GpL16-k0 = 100).
Same read-out and setting: the result for B18 reads 77.9 % of HeCon Ab (GpH7-A5/GpH7-B3/GpL16-k0 = 100); that for B19, 48.1 % of HeCon Ab (GpH7-A5/GpH7-B3/GpL16-k0 = 100).
For the molecule B20, the He/Con_2b was 41.2 % of HeCon Ab (GpH7-A5/GpH7-B3/GpL16-k0 = 100).
On the same count and under the same terms, the result for B21 reads 61.4 % of HeCon Ab (GpH7-A5/GpH7-B3/GpL16-k0 = 100); that for B22, 64.5 % of HeCon Ab (GpH7-A5/GpH7-B3/GpL16-k0 = 100).

The target of another test is T2, FcγRIa extracellular domain with C-terminal His tag (human, UniProt P12314 16-292).
T2 construct: extracellular domain; expressed in FreeStyle293 cells; analyte in Biacore; also called FcgRI; 1a
T2 sequence (P12314 16-292): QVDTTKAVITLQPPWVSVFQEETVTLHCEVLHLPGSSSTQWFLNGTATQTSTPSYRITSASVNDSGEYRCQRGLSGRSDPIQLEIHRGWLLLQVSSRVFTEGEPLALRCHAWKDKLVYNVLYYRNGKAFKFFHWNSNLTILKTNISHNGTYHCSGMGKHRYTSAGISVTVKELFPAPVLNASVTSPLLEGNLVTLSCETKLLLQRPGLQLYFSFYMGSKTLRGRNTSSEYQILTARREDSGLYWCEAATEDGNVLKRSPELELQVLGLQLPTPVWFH
The description is as above.
B1: the He/Con_1a was 104 % of HeCon Ab (GpH7-A5/GpH7-B3/GpL16-k0 = 100).
Still for that read-out and setting: the result for B2 reads 105 % of HeCon Ab (GpH7-A5/GpH7-B3/GpL16-k0 = 100); that for B3, 113 % of HeCon Ab (GpH7-A5/GpH7-B3/GpL16-k0 = 100).
For B4, the He/Con_1a is 112 % of HeCon Ab (GpH7-A5/GpH7-B3/GpL16-k0 = 100).
On the same count and under the same terms, the result for B5 reads 106 % of HeCon Ab (GpH7-A5/GpH7-B3/GpL16-k0 = 100); that for B6, 109 % of HeCon Ab (GpH7-A5/GpH7-B3/GpL16-k0 = 100); that for B7, 108 % of HeCon Ab (GpH7-A5/GpH7-B3/GpL16-k0 = 100).
Same read-out and setting: for B8 the value was 108 % of HeCon Ab (GpH7-A5/GpH7-B3/GpL16-k0 = 100); for B9, 104 % of HeCon Ab (GpH7-A5/GpH7-B3/GpL16-k0 = 100).
On the same count and under the same terms, the result for B10 reads 117 % of HeCon Ab (GpH7-A5/GpH7-B3/GpL16-k0 = 100); that for B11, 104 % of HeCon Ab (GpH7-A5/GpH7-B3/GpL16-k0 = 100).
Consider B12, for which the He/Con_1a is 109 % of HeCon Ab (GpH7-A5/GpH7-B3/GpL16-k0 = 100).
As to B13, the He/Con_1a is 105 % of HeCon Ab (GpH7-A5/GpH7-B3/GpL16-k0 = 100).
Same read-out and setting: for B14 the value was 112 % of HeCon Ab (GpH7-A5/GpH7-B3/GpL16-k0 = 100).
The same measure, in the same setting: for B15 the value was 107 % of HeCon Ab (GpH7-A5/GpH7-B3/GpL16-k0 = 100).
Same read-out and setting: the result for B16 reads 109 % of HeCon Ab (GpH7-A5/GpH7-B3/GpL16-k0 = 100); that for B17, 106 % of HeCon Ab (GpH7-A5/GpH7-B3/GpL16-k0 = 100).
B18: the He/Con_1a was 107 % of HeCon Ab (GpH7-A5/GpH7-B3/GpL16-k0 = 100).
Still for that read-out and setting: the result for B19 reads 108 % of HeCon Ab (GpH7-A5/GpH7-B3/GpL16-k0 = 100); that for B20, 105 % of HeCon Ab (GpH7-A5/GpH7-B3/GpL16-k0 = 100).
The same measure, in the same setting: the result for B21 reads 107 % of HeCon Ab (GpH7-A5/GpH7-B3/GpL16-k0 = 100); that for B22, 110 % of HeCon Ab (GpH7-A5/GpH7-B3/GpL16-k0 = 100).
